Data on 3 molecules can be found in patent US20250346668A1 (GENOR BIOPHARMA, published 2025).

B1: mAb008 (antibody, V domains shown)
VH: QVQLQQSGAELARPGASVKMSCKTSGYTFTDYTVNWVKQRPGQGLEWIGYINPFNSYTKYNQKFKDKATLTADKSSSTAYMQLSSLTSEDSAVYFCANSVSTYWGQGTTLTVSS
VL: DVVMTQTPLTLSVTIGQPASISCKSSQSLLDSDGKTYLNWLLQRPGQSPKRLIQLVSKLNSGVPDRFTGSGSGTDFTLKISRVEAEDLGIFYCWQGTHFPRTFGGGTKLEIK
notes: Mouse hybridoma antibody
B2: mAb009 (antibody, V domains shown)
VH: B1 VH with A12T, T24A, V34I, N35H, N55S, S56D, M81I, S84N, F95Y, T102I
VL: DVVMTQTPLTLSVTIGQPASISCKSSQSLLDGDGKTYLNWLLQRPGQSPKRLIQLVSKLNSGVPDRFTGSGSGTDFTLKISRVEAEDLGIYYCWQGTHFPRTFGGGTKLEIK
notes: Mouse hybridoma antibody
B3: mAb007 (antibody, V domains shown)
VH: QVQLQQSGPELVKPGASVKISCKASGSTFTDNYIHWVKQRPGQGLEWIGWIYPGSVNIKYNEKFKDKATLTADTSSTTAYMQLSSLSSEDSAIYYCARDISRYYFDYWGQGTTLTVSS
VL: DIVMSQSPSSLAVSAGERVTMNCKSSQSLLNSRTRKNYLAWYQQKPGQSPKLLIYWASTRESGVPDRFTGSGSGTDFTLTISSVQAEDLAVYYCKQSFILRTFGGGTKLAIK
notes: Mouse hybridoma antibody; The variable regions are printed as CAb007 VH/VL

Positions count from the first letter of the chain named.

The first assay deals with T1, human CD3e/d protein (Sinobiological, CAT: CT038-H2508H-B) (human, UniProt P07766 23-126; P04234 22-105).
T1 construct: Bought reagent; also called hCD3e/d
Nature of the assay: ELISA, coated hCD3e/d. How it is done: (§1) Human CD3e/g protein, cynomolgus monkey CD3e/g protein (sequences shown in Table 1) or human CD3e/d protein was diluted with PBS to a final concentration of 5.0 μg/mL, and then added with 100 μl per well to a 96-well ELISA plate. The plate was sealed with plastic film and incubated overnight at 4° C. The plate was washed twice with plate washing solution [PBS+0.01% (v/v) Tween 20] on the next day, and was added with blocking solution [PBS+0.01% (v/v) Tween 20+1% (w/w) BSA] to block at room temperature for 2 hours. The blocking solution was poured off, and 100 μl per well of the purified CD3e/g antibody obtained in Example 2 was added. After incubation at 37° C. for 2 hours, the plate was washed 3 times with plate washing solution [PBS+0.01% (v/v) Tween20]. After adding HRP (horseradish peroxidase) labeled secondary antibody (purchased from Sigma), the plate was incubated at 37° C. for 2 hours, washed 3 times with plate washing solution [PBS+0.01% (v/v) Tween 20]. After adding 100 μl per well of TMB substrate and incubating at room temperature for 30 minutes, 100 μl per well of stop solution (1.0N HCl) was added. […] FIG. 2 and Table 3 show the binding activities of CD3e/g antibodies to hCD3e/g as detected by ELISA, and FIG. 3 and Table 4 show the binding activities of CD3e/g antibodies to cyno CD3e/g as detected by ELISA, wherein the IgG control is mouse IgG, and the data in the tables are OD_{450 nm} values. Among them, HIT3a was purchased from BD pharmigen with a catalog number 555336; SP34 was purchased from BD pharmigen with a catalog number 551916. OKT3 was purchased from Biolegend.
Regarding B1, the EC50 amounted to 0.041 nM, the “Emax (OD)” value amounted to 3.05 OD, the “OD450 nm at 0.00128 nM” value is 0.16 OD450 nm and the “OD450 nm at 0.0064 nM” value turned out to be 0.53 OD450 nm. Also, the “OD450 nm at 0.032 nM” value is 1.31 OD450 nm, the “OD450 nm at 0.16 nM” value was 2.48 OD450 nm, the “OD450 nm at 0.8 nM” value was 2.88 OD450 nm and the “OD450 nm at 4 nM” value is 2.96 OD450 nm. In addition, the “OD450 nm at 20 nM” value amounted to 3 OD450 nm and the “OD450 nm at 100 nM” value stood at 3.05 OD450 nm.
On to B2, for which a half-maximal effect (EC50) was put at 0.027 nM, the “Emax (OD)” value was 3.03 OD, the “OD450 nm at 0.00128 nM” value worked out at 0.24 OD450 nm and the “OD450 nm at 0.0064 nM” value amounted to 0.66 OD450 nm. In addition, the “OD450 nm at 0.032 nM” value was found to be 1.67 OD450 nm, the “OD450 nm at 0.16 nM” value worked out at 2.64 OD450 nm, the “OD450 nm at 0.8 nM” value is 2.85 OD450 nm and the “OD450 nm at 4 nM” value worked out at 2.97 OD450 nm. The “OD450 nm at 20 nM” value amounted to 3.02 OD450 nm and the “OD450 nm at 100 nM” value was 3.03 OD450 nm.
Regarding B3, the EC50 worked out at 0.017 nM, the “Emax (OD)” value came to 3.04 OD, the “OD450 nm at 0.00128 nM” value was determined as 0.26 OD450 nm and the “OD450 nm at 0.0064 nM” value was determined as 0.71 OD450 nm. Also, the “OD450 nm at 0.032 nM” value came out at 2.02 OD450 nm, the “OD450 nm at 0.16 nM” value is 2.86 OD450 nm, the “OD450 nm at 0.8 nM” value turned out to be 2.96 OD450 nm and the “OD450 nm at 4 nM” value was 2.99 OD450 nm. Besides, the “OD450 nm at 20 nM” value turned out to be 3.01 OD450 nm and the “OD450 nm at 100 nM” value turned out to be 3.04 OD450 nm.

The target of the next assay is T2, Cynomolgus monkey CD3e/g protein (cynomolgus monkey).
T2 construct: also called cyno CD3e/g; cCD3e/g
Nature of the assay: ELISA, coated cyno CD3e/g. How it is done:
as §1
As for B1, the concentration for a half-maximal effect (EC50) was determined as 0.44 nM, the “OD450 nm at 0.000853 nM” value was determined as 0.0893 OD450 nm, the “OD450 nm at 0.0043 nM” value turned out to be 0.111 OD450 nm and the “OD450 nm at 0.02 nM” value is 0.16 OD450 nm. The “OD450 nm at 0.11 nM” value was found to be 0.48 OD450 nm, the “OD450 nm at 0.53 nM” value was found to be 2.03 OD450 nm, the “OD450 nm at 2.67 nM” value is 3.32 OD450 nm and the “OD450 nm at 13.3 nM” value came to 3.48 OD450 nm. Also, the “OD450 nm at 66.7 nM” value worked out at 3.42 OD450 nm.
Turning to B2, the EC50 worked out at 0.32 nM, the “OD450 nm at 0.000853 nM” value worked out at 0.0755 OD450 nm, the “OD450 nm at 0.0043 nM” value amounted to 0.126 OD450 nm and the “OD450 nm at 0.02 nM” value worked out at 0.19 OD450 nm. The “OD450 nm at 0.11 nM” value amounted to 0.63 OD450 nm, the “OD450 nm at 0.53 nM” value came out at 2.44 OD450 nm, the “OD450 nm at 2.67 nM” value came to 3.41 OD450 nm and the “OD450 nm at 13.3 nM” value is 3.54 OD450 nm. Besides, the “OD450 nm at 66.7 nM” value came to 3.46 OD450 nm.
Turning to B3, the EC50 came out at 0.26 nM, the “OD450 nm at 0.000853 nM” value was found to be 0.0902 OD450 nm, the “OD450 nm at 0.0043 nM” value turned out to be 0.128 OD450 nm and the “OD450 nm at 0.02 nM” value was found to be 0.22 OD450 nm. Also, the “OD450 nm at 0.11 nM” value turned out to be 0.73 OD450 nm, the “OD450 nm at 0.53 nM” value turned out to be 2.7 OD450 nm, the “OD450 nm at 2.67 nM” value stood at 3.45 OD450 nm and the “OD450 nm at 13.3 nM” value was found to be 3.47 OD450 nm. Also, the “OD450 nm at 66.7 nM” value was determined as 3.49 OD450 nm.
